The target of assay [1] is Cry11Ba toxin, trypsin-activated (Bacillus thuringiensis jegathesan) (Bacillus thuringiensis jegathesan) (UniProt Q45730). The assay is described as follows: cell-based or functional assay.
Assay [2] has the same target. The assay is described as follows: 125I-Cry11Ba binding to An. gambiae BBMV with 10 µM competitor peptide.
Assay [3] concerns the target brush border membrane vesicles (BBMV) of Anopheles gambiae 4th instar larvae (Anopheles gambiae). The assay is described as follows: 125I-Cry11Ba binding to An. gambiae BBMV in the presence of 10 µM AgAPN2tb/Del1, against no peptide.
For assay [4] the target is unchanged. Put plainly: 125I-Cry11Ba binding to An. gambiae BBMV in the presence of 10 µM AgAPN2tb, against no peptide.
Assay [5] has the same target. The assay is described as follows: 2.5 nM 125I-Cry11Ba on 8 µg An. gambiae BBMV, no competitor.
For assay [6] the target is unchanged. The assay is described as follows: 125I-Cry11Ba binding to An. gambiae BBMV in the presence of 10 µM AgAPN2tb/Del3, against no peptide.
Assay [7] concerns the target T1, Cry11Ba toxin, trypsin-activated (Bacillus thuringiensis jegathesan) (Bacillus thuringiensis jegathesan, UniProt Q45730 29-647, 125I-labelled (chloramine-T) in the BBMV binding assays; unlabelled when coated on microtiter plates).
T1 construct: also called trypsinized Cry11Ba; trypsinated Cry11Ba
The assay is described as follows: saturation ELISA, biotinylated peptide on plates coated with trypsinized Cry11Ba, one-site fit.

The values below come from US9215869 (UNIVERSITY OF GEORGIA RESEARCH FOUNDATION, dated 2015).

Sequence of Cry11Ba toxin, trypsin-activated (Bacillus thuringiensis jegathesan) (Bacillus thuringiensis jegathesan) (Q45730 29-647 limits assumed): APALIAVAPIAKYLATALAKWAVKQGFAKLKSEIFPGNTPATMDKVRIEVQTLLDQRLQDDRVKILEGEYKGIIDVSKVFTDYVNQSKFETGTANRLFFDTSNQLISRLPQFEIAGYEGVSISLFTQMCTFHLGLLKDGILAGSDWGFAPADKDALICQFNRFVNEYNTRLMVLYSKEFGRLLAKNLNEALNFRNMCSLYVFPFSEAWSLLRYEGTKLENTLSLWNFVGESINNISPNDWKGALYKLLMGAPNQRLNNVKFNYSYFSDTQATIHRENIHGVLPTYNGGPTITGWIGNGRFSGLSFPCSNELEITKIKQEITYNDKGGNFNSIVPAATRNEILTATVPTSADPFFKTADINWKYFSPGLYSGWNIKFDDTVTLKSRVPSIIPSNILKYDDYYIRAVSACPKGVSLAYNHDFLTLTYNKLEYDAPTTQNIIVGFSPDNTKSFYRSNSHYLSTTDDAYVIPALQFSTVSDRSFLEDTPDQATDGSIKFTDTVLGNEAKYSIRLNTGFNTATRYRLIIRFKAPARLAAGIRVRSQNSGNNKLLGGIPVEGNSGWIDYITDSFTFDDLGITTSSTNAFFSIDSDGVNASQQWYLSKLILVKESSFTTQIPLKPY
T1 sequence (Q45730 29-647 limits assumed): as above

With “AgAPN2ta/Del2 (AgAPN2ta with a middle 10-kDa segment deleted) (receptor)”, the larval mortality with Cry11Ba plus peptide inclusion bodies (1:100), 24 h in assay [1] came to 8.8%. Further, the toxin bound to BBMV in presence of the competitor in assay [2] worked out at 20.6 fmol.

For “Cry11Ba toxin, trypsin-activated (Bacillus thuringiensis jegathesan) (from UniProt Q45730 29-647) (ligand)”, the percent increase of Cry11Ba binding to BBMV in assay [3] came out at 62%; in assay [4], 24%; in assay [6] it was 45%. The same molecule yielded a toxin bound in assay [5] of 27.9 fmol.

On to “AgAPN2ta/Del3 (AgAPN2ta with the third 10-kDa segment deleted) (receptor)”, for which, in assay [1], the larval mortality with Cry11Ba plus peptide inclusion bodies (1:100), 24 h was 5%. Further, the toxin bound to BBMV in presence of the competitor in assay [2] was 19.5 fmol.

B1: AgAPN2ta, 30-kDa fragment of Anopheles gambiae aminopeptidase N AgAPN2 (residues 336-590 of SEQ ID NO:2) (receptor)
chain: STSMQQHRIAAVISHEIAHQWFGDLVTCEWWDVTWLNEGFARYYQYYGTALVETEWDLDHQFVVEQLQGVMQMDSLRSTHPMTHPVYTQAQTSGIFDNISYNKGAVMLRMMEHYLTTETFKTALRAYIKDRAFKTTRPEDLFNALNRYDPNARSYMEPWTVQPGYPLVTVTSHDTGFTITQKRFLVNEPDHNEQTAWPLPITFATKASEFSITRPAFYTGMTFEIPMQGASDVEYFILNNQQVGYYRVNYDAILW
modifications: biotinylated when used as probe
notes: Expressed in E. coli as inclusion bodies, solubilized in 8M urea, Ni-purified and dialyzed; An N-terminal Met from the NdeI site is implied by the primers; also called AgAPN2a; -2a; not shown: C-terminal vector-derived His tag (pET-30a(+), NdeI/XhoI; purified on Ni2+ column)
B1 showed a Kd in assay [7] of 0.0167 µM.

B2: AgAPN2tb, 28-kDa fragment of Anopheles gambiae aminopeptidase N AgAPN2 (residues 591-843 of SEQ ID NO:2) (receptor)
chain: GKISKALHSEGFGGIHVLNRAQIVDDLFNLARGDVVPYGTALEILEYLKEETEYAPWLAAVNGLTTLSRRIHADDEKLFTAHILDIFSKAYDIVKFQAPTATERRIFTYMRQNVLQWACNYGHEECSKAAVAEFHRYHQNPSVKVHPDLRQVVYCEGIRKGSTEEFEFLWNQYLTTNVATEQILILQGLGCVSSSELITDMLNGIASPHVRSQDKNNAFTYVINNPYTLPHVSRYLQQNHANWAASHGSYTNV
modifications: biotinylated when used as probe
notes: Expressed in E. coli as inclusion bodies, solubilized in 8M urea, Ni-purified and dialyzed; An N-terminal Met from the NdeI site is implied by the primers; also called AgAPN2b; biotin-AgAPN2tb; not shown: C-terminal vector-derived His tag (pET-30a(+), NdeI/XhoI; purified on Ni2+ column)
Consider B2, for which, in assay [7], the Kd is 0.0264 µM. This Kd is about 1.6-fold higher than that of the molecule before.

Broadly, the Kd is the equilibrium constant for the complex coming apart. A lower Kd goes with higher affinity.
